Experimental findings from patent US20230322953A1 are described below.

For assay [1], the target named is human CD3 (TCR/CD3 complex) on human T cells (human) (UniProt P07766). The assay is described as follows: flow cytometry (FACS) on human T cells, Experiment 2, isotype control. On the technique in general: A flow cytometer gives signals particle by particle.
Assay [2] shares this target. The assay is described as follows: flow cytometry (FACS) on human T cells, Experiment 3, isotype control.
Assay [3] has as its target cynomolgus monkey CD3 (TCR/CD3 complex) on cynomolgus monkey T cells (cynomolgus monkey). Kind of assay: flow cytometry (FACS) on cynomolgus monkey T cells, isotype control.

Sequence of human CD3 (TCR/CD3 complex) on human T cells (human) (P07766 23-207, one chain of several): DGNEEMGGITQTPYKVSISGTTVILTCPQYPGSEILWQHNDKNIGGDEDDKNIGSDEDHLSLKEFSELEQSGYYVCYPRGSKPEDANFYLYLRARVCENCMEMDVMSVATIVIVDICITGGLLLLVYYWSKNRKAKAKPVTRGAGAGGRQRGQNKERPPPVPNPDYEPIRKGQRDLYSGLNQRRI
Sequence of cynomolgus monkey CD3 (TCR/CD3 complex) on cynomolgus monkey T cells (cynomolgus monkey) (Q95LI5 22-198, one chain of several): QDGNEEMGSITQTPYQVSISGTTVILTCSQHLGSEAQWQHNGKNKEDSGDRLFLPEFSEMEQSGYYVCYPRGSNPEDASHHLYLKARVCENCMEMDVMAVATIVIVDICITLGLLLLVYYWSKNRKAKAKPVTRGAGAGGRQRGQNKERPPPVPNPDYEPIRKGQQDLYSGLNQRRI

Consider hIgG1 iso (CrownBio, #C0001) (antibody), for which the Maximum MFI in assay [1] amounted to 12 MFI; in assay [2], 3000 MFI; in assay [3], 794 MFI.
